# US20250250357A1
# Positions count from the first letter of the chain named.
# B1: S009-F8-18.9 (antibody, human IgG1, kappa, V domains shown)
# VH: EFQLQQSGPELVKPGASVKISCKASGYSFTDYNMNWVKQSNGKSLEWIGIINPNYGTTSYNQKFKGRATLTVDQSSSTAYVQLNSLTSEDSAVYYCARGGYDNEAMDYWGQGTSVTVSS
# VL: QIVLTQSPAIMSASPGEKVTMTCSASSSVSYMHWYQQKSGTSPKRWIYDTSKLASGVPARFSGSGSGTSYSLTISSMEAEDAATYYCQQWSSNPPTFGAGTKLELKR
# B2: S009-F8-19.21 (antibody, human IgG1, kappa, V domains shown)
# VH: B1 VH with A24T, I50V, S59G, R67K, V81M, N103G, Q111H
# VL: B1 VL with S30N, N93Y, A99G, L105I
# B3: S009-F8-27.1 (antibody, human IgG1, kappa, V domains shown)
# VH: EVQLVESGGGLVKPGGSLKLSCAASGFTFSSYAMSWVRQTPEKRLEWVATISDGGNYTYYPDNVKGRFTISRDNAKNNLYLQMSHLKSEDTAMYYCAGDRGYPYAMDSWGQGTSVTVSS
# VL: NIMMTQSPSSLAVSAGEKVTMSCKSSQSVLYSSNQKNYLAWYQQKPGQSPKLLIYWASTRESGVPDRFTGSGSGTDFTLTISNVHAEDLAVYYCHQYLSSLTFGAGTKLELKR
# B4: S009-F8-36.12 (antibody, human IgG1, kappa, V domains shown)
# VH: EVQLQQSGPELVKPGASVKISCKASGYTFTDYYMNWVKQSHGKSLEWIGDINPNNGGTSYNQKFKGKATLTVDKSSSTAYMELRSLTSEDSAVYYCASWGYGSSSRGYFDYWGQGTTLTVSS
# VL: QIVLSQSPAILSASPGEKVTMTCRASSSVSYMHWYQQKPGSSPKPWIYATSNLASGVPARFSGSGSGTSYSLTISRVEAEDAATYYCQQWSSNPWTFGGGTKLEIKR
# B5: S009-F8-12.13 (antibody, human IgG1, kappa, V domains shown)
# VH: QVQLQQPGAELVKPGASVKLSCKASGYTFTSYWMHWVKQRPGQGLEWIGMIHPNSGSTNYNEKFKSKATLTVDKSSSTAYMQLSSLTSEDSAVYYCARRTPIITLVGHWYFDVWGTGTTVTVSS
# VL: DIVMTQSHKFMSTSVGDRVSITCKASQDVGTAVAWYQQKPGQSPKLLIYWASTRHTGVPDRFTGSGSGTDFTLTISNVQSEDLADYFCQQYSSYPLTFGAGTKLELKR
# B6: S009-F8-15.19 (antibody, human IgG1, kappa, V domains shown)
# VH: EFQLQQSGPELVKPGASVKISCKASGYSFTDYNMNWVKQSNGKSLEWIGIINPYYGTTSNNQNFKGKATLTVDQSSSTAYMQLNSLTSDDSAVYYCARWLRRDAMDYWGQGTSVTVSS
# VL: B5 VL with Q6P, T22A, T31S, A32S, A51T, L96W, A100G, L106I
# B7: S009-F8-33.12 (antibody, human IgG1, kappa, V domains shown)
# VH: EVQLQQSGAELVKPGASVKLSCTASAFNIKDYYMHWVKQRTEQGLEWIGRIDPEDGETKYAPKFQGKATITADTSSNTAYLQLSSLTSEDTAVYYCASGSGTGAMDYWGQGTSVTVSS
# VL: DIVMTQSQKFMSTSVGDRVSITCKASQNVRTAVGWYQQKPGQSPKALIYLASNRHTGVPDRFTGSGSGTDFTLTISNVQSEDLADYFCLQHWNSPYTFGGGTKLVIKR
# B8: S009-F8-5.15 (antibody, human IgG1, kappa, V domains shown)
# VH: QVQLQQPGTELVKPGASVKLSCKASGYTFTSYWMHWVKQRPGQGLEWIGHSNPSNGGTNYNEKFKSKATLTVDKSSSTAYMQLSSLTSEDSAVYYCARWVRGSNYEYFDVWGTGTTVTVSS
# VL: DIVMTQSQKFMSTTVGDRVSIICKASQNVGSAVAWCQQKPGQSPKLLIYSASNRYTGVPDRFTGSGSGTDFTLTISNMQSEDLADYFCQQYSSYPLTFAGGTKLEIKR
# B9: S009-F8-24.14 (antibody, human IgG1, kappa, V domains shown)
# VH: EFQLQQSGPELVKPGASVKISCKASGYSFTDYNMNWVKLSNGKSLEWIGVIIPNYGTSSYNQKFKGKATLTVDQSSSTAYMQLNSLTSEDSAVYYCARWDNYYGSSLDYWGQGTTLTVSS
# VL: B8 VL with I22T, S31T, C36Y, T72I, A99G, G100A, I106L
# B10: S009-F8-8.22 (antibody, human IgG1, kappa, V domains shown)
# VH: EVQLQQSGPELVKPGASVKMSCKASGYTFTDYIIHWVKQSHGKSLEWIAYIFPNNGGTGYNQKFRGKATLTVNKSSSTAYMELRSLTSEDSAVYYCARWRLRQYFDVWGTGTTVTVSS
# VL: B8 VL with T14I, I22T, S31T, C36Y, A99G
# B11: S009-F8-31.22 (antibody, human IgG1, kappa, V domains shown)
# VH: EVQLVESGGDLVKPGGSLKLSCAASGFTFSTYGMSWVRQTPDKRLEWVATISSGGSYTYYPDSLKGRFTISRDNAKNTLYLQMSSLKSEDTAMYYCARHEGYYYGKDYWGQGTTLTVSS
# VL: DIVLTQSPATLSVTPGDSVSLSCRASHSISNNLHWYQQKSHESPRLLIKYASQSISGIPSKFSGSGSGTDFTLSINSVETEDFGMYFCQQTNSWPLTFGAGTKLELKR
# B12: S009-F8-4.5 (antibody, human IgG1, kappa, V domains shown)
# VH: QVQLQQPGAELVKPGASVKLSCKASGYTFTIYWMHWVKQRPGQGLEWIGMIHPNSGNTNYNEKFKSKATLTVDKSSSTAYMQLSSLTSEDSAVYYCSLIHWYFDVWGTGTTVTVSS
# VL: QIVLTQSPAIMSASPGEKVTMTCSASSSVSYMYWYQQKPGSSPRLLIYDTSNLASGVPVRFSGSGSGTSYSLTISRMEAEDAATYYCQQWSSYPLTFGAGTKLELKR
# B13: S009-F8-29.1 (antibody, human IgG1, kappa, V domains shown)
# VH: QVQLQQSGAELARPGASVKMSCKASGYTFISYTMHWVKQRPGQGLEWIGYINPSSGYTKYNQKFKDKATLTADKSSSTAYMQLNSLTSEDSAVYYCARYYSNPDYYAMDYWGQGTSVTVSS
# VL: B12 VL with M21I, Y33H, Y35F, S41T, R44K, L46W, D49S, V59A, W90R, A99G
# B14: S009-F8-13.8 (antibody, human IgG1, kappa, V domains shown)
# VH: EFQLQQSGPELVKPGASVKISCKASGYSFTDYNMNWVKQTNGKSLEWIGIINPNYGTSSYNQKFKGKATLTVDQSSSTAYMQLNSLTSEDSAVYYCARVGRDNSGFDYWGQGTTLTVSS
# VL: B12 VL with L95P, A99S, K102E, L105I
# B15: S009-F8-9.16 (antibody, human IgG1, kappa, V domains shown)
# VH: EVHLQQSGPVLVKPGASVKMSCKASGYTFTDYFMNWVKQSHGKSLEWIGVINPHNGYVNYNQKFQGRATLTVDKSSSTVYMELNSLTSEDSAVYHCARSAESAWFAYWGQRTLVTVSA
# VL: DVLMTQTPLSLPVSLGDQVSISCRSSQSIVHVKGNTYLEWYLQKPGQSPELLIYKVSNRFSGVPDRFSGGGSGTDFTLKISRVEPEDLGVYYCFQGSHLPYTFGGGTKLEIKR
# B16: S009-F8-22.23 (antibody, human IgG1, kappa, V domains shown)
# VH: QVQLKQSGPGLVQPSQSLSITCTVSGFSLFSYGVHWVRQSPGKGLEWLGVIWSGGSTDYNAAFISRLSISKDNSKSQVFFKMNSLQADDTAMYYCARNGGSMITTLYYAMDYWGQGTSVTVSS
# VL: DVVMTQTPLSLPVSLGDQASISCRSSQSLVHSYGNTYLHWYLQKPGQSPKLLIYKVSNRFSGVPDRFSGSGSGTDFTLKISRVEAEDLGVYFCSQSTHIPFTFGGGTKLEIKR
# B17: S009-F8-32.3 (antibody, human IgG1, kappa, V domains shown)
# VH: QVQLKESGPGLVAPSQSLSITCTVSGFSLSSYAISWVRQPPGKGLEWLGVIWTGGGTNYNSALKSRLSISKDNSKSQVFLKMNSLQTDDTARFYCARNNYGRLDYAMDYWGQGTSVTVSS
# VL: B16 VL with S32G, Y33N, A85T, I99V, G105S
# B18: F3.80.22-H17 (scFv, not shown: small tags and cut ends)
# scFv: EVQLVQSGAEVKKPGATVKISCKVSGYTFTDYEIHWVQQAPGKGLEWMGAFDPEIGGSAYNQKFKDRVTITADKSTDTAYMELSSLRSEDTAVYYCTDYYGSSSGYFDVWGQGTTVTVSSGGGGSGGGGSGGGGSDIVMTQTPLSLPVTPGEPASISCRSSQSLEHNDGNTYLHWFLQKPGQSPQLLIYKVSNRFSGVPDRFSGSGSGTDFTLKISRVEAEDVGVYYCSQSTHVPFTFGQGTKLEIK
# B19: F3.80.22-H1 (scFv, not shown: small tags and cut ends)
# scFv: DIVMTQTPLSLPVTPGEPASISCRSSQSLEHNNGNTYLHWFLQKPGQSPQLLIYKVSNRFSGVPDRFSGSGSGTDFTLKISRVEAEDVGVYYCSQSTHVPFTFGQGTKLEIKGGGGSGGGGSGGGGSEVQLVQSGAEVKKPGATVKISCKVSGYTFTDYEIHWVQQAPGKGLEWMGAFDPEIGGSAYNQKFKDRVTITADKSTDTAYMELSSLRSEDTAVYYCTDYYGSSSGYFDVWGQGTTVTVSS
# B20: F3.80.22-H8 (scFv, not shown: small tags and cut ends)
# scFv: B19 scFv with N33D, V151A, T203S, D204S, Q239T
# B21: F3.80.22-H3 (scFv, not shown: small tags and cut ends)
# scFv: B19 scFv with V151A, D204S, Q239T
# B22: F3.80.22-H2 (scFv, not shown: small tags and cut ends)
# scFv: B19 scFv with V151A, D204S
# B23: F3.80.22-H4 (scFv, not shown: small tags and cut ends)
# scFv: B19 scFv with V151A, T203S, D204S, Q239T
# B24: F3.80.22-H6 (scFv, not shown: small tags and cut ends)
# scFv: B19 scFv with N33D, V151A, D204S
# B25: F3.80.22-H7 (scFv, not shown: small tags and cut ends)
# scFv: B19 scFv with N33D, V151A, D204S, Q239T
# Molecular target: monkey MSLN full-length protein expressed on HEK293T cells (HEK293T-monkey MSLN) (monkey)
# Assay: FACS on HEK293T-monkey MSLN cells
EC50 [nM],Maximum mean fluorescence intensity,Binder
0.81,24900,B1
0.3,24900,B2
2.05,31300,B3
–,173,B4
0.08,21500,B5
0.39,28200,B6
0.64,106000,B7
0.18,20200,B8
0.52,105000,B9
0.36,112000,B10
–,3390,B11
0.64,35000,B12
–,80,B13
0.15,20500,B14
–,348,B15
1.09,114000,B16
0.69,112000,B17

# Molecular target: human MSLN on OVCAR3 tumor cells (human) (UniProt Q13421)
# Sequence (Q13421 other isoform, or with tags, fused parts or gaps): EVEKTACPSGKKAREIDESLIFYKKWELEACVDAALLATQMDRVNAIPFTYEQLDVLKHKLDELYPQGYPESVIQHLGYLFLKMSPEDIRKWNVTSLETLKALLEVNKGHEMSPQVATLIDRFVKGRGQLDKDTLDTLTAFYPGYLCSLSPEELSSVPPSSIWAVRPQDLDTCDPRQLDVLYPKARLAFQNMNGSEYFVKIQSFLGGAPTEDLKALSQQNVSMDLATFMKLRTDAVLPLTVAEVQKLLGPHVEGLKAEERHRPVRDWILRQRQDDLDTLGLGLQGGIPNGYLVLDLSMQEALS
# Assay: FACS, OVCAR3 cells
row,Maximum MFI [MFI],Binder
1,456,B18
2,471,B19
3,502,B20
4,502,B21
5,512,B22
6,505,B23
7,473,B24
8,479,B25
